Experimental data taken from article PMC10450177.

System: CasDinG WT (Pseudomonas aeruginosa strain 83 (extrachromosomal plasmid))
Experiment: fluorescence anisotropy
Settings: 100 mM Tris pH 8.0, 1 mM TCEP, 5 mM MgCl2, +/- 1 mM AMP-PNP, 10 nM FAM-ssDNA, CasDinG 0-2.5 uM, room temperature

For “TCGTCACCAGTACAAACTACAACGCCTGTAGCATTCCACA [40 nt ssDNA (oligo 7)]”, the Kd was 26 nM and the Kd (no nucleotide, 5 mM Mg2+) was 25 nM.
